Results as given in patent US20190144553A1 (published 2019).

Target: T1, WT hTNF (wild type human TNF-α, N-terminal 6×His tag) (human, UniProt P01375 77-233)
T1 construct: also called His-TNF
Test: BLI (Octet RED96), His-tagged hTNF on HIS1K biosensor, soluble receptor in solution, global 1:1 fit
Experimental: KD values were calculated using global fitting with a 1:1 model (R²≥0.95).

T1 sequence (P01375 other isoform, or with tags, fused parts or gaps limits assumed): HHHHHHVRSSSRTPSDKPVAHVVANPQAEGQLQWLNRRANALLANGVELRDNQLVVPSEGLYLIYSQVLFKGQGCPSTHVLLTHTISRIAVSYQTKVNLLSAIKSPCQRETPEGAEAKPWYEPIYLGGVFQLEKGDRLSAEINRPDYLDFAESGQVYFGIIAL

B1: soluble hTNF-R1 (Peprotech) (receptor, human, UniProt P19438 41-201, looked up)
chain: DSVCPQGKYIHPQNNSICCTKCHKGTYLYNDCPGPGQDTDCRECESGSFTASENHLRHCLSCSKCRKEMGQVEISSCTVDRDTVCGCRKNQYRHYWSENLFQCFNCSLCLNGTVHLSCQEKQNTVCTCHAGFFLRENECVSCSNCKKSLECTKLCLPQIEN
notes: Bought soluble receptor used as analyte in the Octet assay; also called p55
  Kd: 10.2 nM
